Columns and labels:
[1] = Thermostability: residual activity on pNPG after incubation; format: physicochemical; conditions: 1 g/L, pH 5
Experimental: (§1) Specific activity. 4-Nitrophenyl-beta-D-glucopyranoside (pNPG) was dissolved in DMSO to produce a 100 mM stock solution. Right before assay, the 100 mM pNPG stock solution was diluted 100-fold in 50 mM sodium acetate pH 5 with 0.01% TWEEN® 20 to 1 mM pNPG. Enzyme was diluted to a wide range of concentrations in the same buffer. To 20 μl of the enzyme dilutions (a range of concentration), 100 μl of the 1 mM pNPG solution were quickly added. The reaction was incubated at 40° C. for 20 minutes before the reaction was stopped with 50 μl of 1 M sodium carbonate pH 10, and the absorbance at 405 nm was measured for 4-nitrophenolate production. The specific activity of the Penicillium oxalicum GH3 beta-glucosidase on pNPG was determined to be 72.3±1.7 IU/mg, where […] produce 1 μmole of glucose per minute at 40° C., pH 5.
Thermostability. The Penicillium oxalicum GH3 beta-glucosidase was diluted in 50 mM sodium acetate pH 5 with 0.01% TWEEN® 20 to 1 g/L, and then incubated at 50° C. for 3 days, and 60° C. for 3 hours or 24 hours. The same sample was stored at 4° C. to serve as control. After incubation, the residual activity of the samples was measured using pNPG as substrate, following the same assay protocol described above, but using one enzyme loading which yielded less than 5% conversion. The activity of the sample in 4° C. was normalized to 100%, and the activities of samples at other incubation conditions were compared to the 4° C. activity. The thermostability of the Penicillium oxalicum GH3 beta-glucosidase is shown below.

[2] = Specific activity on pNPG; format: biochemical; conditions: 40° C., pH 5, 20 minutes
Experimental: as §1

[3] = pH activity profile on pNPG; format: biochemical; conditions: Britton Robinson buffer, 50° C.
Experimental: as §1
pH profile. The pH activity profile of the Penicillium oxalicum GH3 beta-glucosidase was determined using the same protocol described above, except the beta-glucosidase was incubated at four different pHs (4, 5, 6, and 7) and one enzyme loading was used, which yielded less than 5% conversion. Britton Robinson buffer (100 mM) was used as the buffer system. The 100 mM Britton Robinson buffer was titrated to a various pH values in the range of 4-7 using 5 M sodium hydroxide and then diluted to 40 mM with deionized water. The pNP-glucose was prepared in the same buffer, and the activity was measured at 50° C. The highest activity was normalized to 100%, and activities at the other pH values were compared to the highest activity and expressed in % activity. The pH profile of the Penicillium oxalicum GH3 beta-glucosidase is shown below.

[4] = PCS hydrolysis assay (1-gram ground-sieved, unwashed PCS), cellulose conversion; format: biochemical; conditions: supplemented; 50 and 55° C., pH 5.0
Experimental: Corn stover was pretreated at the U.S. Department of Energy National Renewable Energy Laboratory (NREL) using dilute sulfuric acid. The conditions used for the pretreatment were 0.048 g sulfuric acid/g dry biomass at 190° C. and 25% w/w dry solids for around 1 minute. The water-insoluble solids in the pretreated corn stover (PCS) contained 52% cellulose, 3.6% hemicellulose and 29.8% lignin. Cellulose and hemicellulose were determined by a two-stage sulfuric acid hydrolysis with subsequent analysis of sugars by high performance liquid chromatography using NREL Standard Analytical Procedure #002. Lignin was determined gravimetrically after hydrolyzing the cellulose and hemicellulose fractions with sulfuric acid using NREL Standard Analytical Procedure #003. […] The protein concentration was determined using a BCA Reagent Kit (Pierce, Rockford, Ill., USA).
Penicillium oxalicum GH3 beta-glucosidase (1.5 mg/g cellulose) was added to CELLUCLAST® 1.5L (15 mg/g cellulose) for a total loading of 16.5 mg protein/g cellulose. […] After 72 hour incubation at 50 and 55° C., samples were mixed well, centrifuged at 3000 rpm for 5 minutes, and supernatants were filtered using a 0.45 μm MULTISCREEN® 96-well filter plate (Millipore, Bedford, Mass., USA) and filtrates analyzed for sugar content as described below. […]

B1: Penicillium oxalicum GH3 beta-glucosidase: Family GH3 beta-glucosidase of Penicillium oxalicum strain IBT5387 (SEQ ID NO: 2), expressed in Aspergillus oryzae and purified (protein, listed as Penicillium oxalicum)
chain: MRSSTTVLAFVSYGSFGIAAAKPIQEHKPELLNSFHGFQIEEPYSPPFYPSPWMNPRAEGWEDAYQKALAFVSQLTLLEKVNLTTGVGWENGPCVGNTGSVPRLGFKGLCLQDSPQGVRFADYASAFTSSQMAAATFDKTVLYERGVAMAQEHKGKGITVQLGPVAGPLGRAPEGGRNWEGFSPDPVLNGIAMAETIKGMQDTGVLACAKHYVGNEQEHFRQAGESAGHGYNIAESISSNIDDRTMHEMYLWPFADAVRAGVASFMCSYNQINNSYGCQNSHTLNKLLKSELGFQGFVMSDWQAQHSGVSSALAGLDMTMPGDTEFDTGLSFWGSNLTIAVLNGTVPEWRIDDMAMRIMAAYFKVGLTIEDQPDVNFNSWTYDTYGYKYFYSKEGYEKVNWHVDVRANHAQQIRETAAKGTVLLKNTNGALPLKRPSFVAVVGEDAGPNPKGPNGCPDRGCDEGTLAMGWGSGSTQFPFLVTPDSAIQAKVLEYGGRYESILDNYDESAISALVSQPDATCIVFGNSDSGEAFITVDGNWGDRNNLTLWQNADAVIRNVSALCSNTIVVLHTVGPVLLTDYYEHPNITAIVWAGLPGEESGNALVDILWGDVNPAGRTPFTWAKSREDYGTDVMYVPNNGEQAPQQSFSEGIFLDYRHFDQAGIDPIYEFGHGLSYTNFSYSDLRIVTKHVRPYRPTTGMTTQAPIIGPLPSPNLTEYQFPATFKYIPAFIYPYLNSTESLRAASKDPHYGSTAFIPPHALDSSPQPLNPAGDPIASGGNSMLYQELYEITAKITNTGNLAGDEVVQLYVNLGGDNPPRQLRGFDRIHLLPGQSKVFRATLTRRDLSNWDVAAQNWRIIRSAKEVYVGRSSRDLPLSARLESW
In the case of B1, the “Residual activity on pNPG” value ([1]; incubation 4° C. (control, normalized to 100%)) is reported as 100%, the “Residual activity on pNPG” value ([1]; incubation 50° C., 72 hours) is reported as 100% and the “Residual activity on pNPG” value ([1]; incubation 60° C., 3 hours) is reported as 100%. The “Residual activity on pNPG” value ([1]; incubation 60° C., 24 hours) was 100%, the “Residual activity on pNPG” value ([1]; incubation 70° C., 24 hours) was 76% and the “specific activity on pNPG” value [2] was 72.3±1.7 IU/mg. For the same molecule, the “Activity (relative to highest activity)” value ([3]; pH 4.0) was 38%, the “Activity (relative to highest activity)” value ([3]; pH 5.0) was 99% and the “Activity (relative to highest activity)” value ([3]; pH 6.0) was 100%. The “Activity (relative to highest activity)” value ([3]; pH 7.0) was 36% and the “effect on CELLUCLAST 1.5L in PCS hydrolysis” value [4] was “synergistic effect”.
